In the supplement of paper PMC9170038:

Test system: MS2 coat protein
Assay: apparent KD of MS2 coat protein; designed switch direction (-1 OFF switch, 1 ON switch): 1; higher = weaker reporter binding
Outline: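 Stalled E. coli RNA polymerase transcribed designed RNA switches on Illumina chips, which were then titrated with SNAP-549-labelled MS2 coat protein, doubling from 0.7 or 1.5 nM to 3 µM. Steps lasted from 0.8–1.5 h at the lowest concentration to 10–20 min at the highest. The apparent KD is each design's median over clusters of curve-fitted normalised fluorescence.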

[1] = input ligand: microRNA oligo, concentration not stated

Sequence	apparent KD of MS2 coat protein (input ligand: FMN 200 uM)	apparent KD of MS2 coat protein [1]	apparent KD of MS2 coat protein (input ligand: none)
GCUCGAUGAGCGGUUUACAUGAGGAUCACCCAUGUAAAUGGGCAGGAUAUUUACGUGCUUUGUGUAGAGAAGGGCCCAUCGAGC [SameState NG3 #75] (Eterna round: R96, puzzle: Same State NG 3)	18.1 nM	47.4 nM	112 nM
GCUCGAUGAGCUGUCUACAUGAGGAUCACCCAUGUAGAUGCGGAGGAUAUUUACGUGCUUUAUGUAGAGAAGGCCGUAUCGAGC [SameState NG3 #79] (Eterna round: R96, puzzle: Same State NG 3)	12 nM	15.6 nM	17.9 nM
GCUCGAUGAGCUGUCUACAUGAGGAUCACCCAUGUAGAUGGGCAGGAUAUUUACGUGCUUUGUGUAGAGAAGGGCCCAUCGAGC [SameState NG3 #77] (Eterna round: R96, puzzle: Same State NG 3)	35 nM	144 nM	267 nM
GCUCGAUGAGCUGUUUACAUGAGGAUCACCCAUGUAGAUGCGGAGGAUAUCUACGUGCUUUAUGUAGAGAAGGCCGUAUCGAGC [SameState NG3 #81] (Eterna round: R96, puzzle: Same State NG 3)	14.2 nM	22.2 nM	28.4 nM
GCUCGAUGUGCUGUCUACAUGAGGAUCACCCAUGUAGAUGCGGAGGAUAUCUACGUGCUUUAUGUAGAGAAGGUCGUAUCGAGC [SameState NG3 #84] (Eterna round: R96, puzzle: Same State NG 3)	52.5 nM	50.2 nM	90.4 nM
GCUCGAUGUGUUGUCUACAUGAGGAUCACCCAUGUAGAUGCGGAGGAUAUCUACGUGCUUUAUGUAGAGAAGGUCGUAUCGAGC [SameState NG3 #85] (Eterna round: R96, puzzle: Same State NG 3)	18 nM	23.7 nM	34.3 nM
GCUCGCACGAUGACCCACAUGAGGAUCACCCAUGUGUGUGGGUAGGAUAUCUAUAUUAAGGAUUUAGAGAAGGGCCGAGCGAGC [SameState NG3 #22] (Eterna round: R96, puzzle: Same State NG 3)	450 nM	419 nM	578 nM
GCUCGCGACGCAGGAUAUGGGUGCCUGUACAUGAGGAUCACCCAUGUUAAGGGACGGAAAACGAACCAGAAGGGCGUCACGAGC [Ceusdian] (Eterna round: R96, puzzle: Same State NG 2)	68.1 nM	132 nM	1120 nM
GCUCGCGGCACAGGAUAUGGGUGCCUGUACAUGAGGAUCACCCAUGUUAAGGGACGGAUUACGAACCAGAAGGGUGUGGCAAGC [Reonisma] (Eterna round: R96, puzzle: Same State NG 2)	95.5 nM	294 nM	1060 nM
GCUCGGAUGAUGGCCCACAUGAGGAUCACCCAUGUGCGUGGGCAGGAUAUCUAGAUUAAGGAUGUAGAGAAGGGCCUACCGAGC [SameState NG3 #33] (Eterna round: R96, puzzle: Same State NG 3)	543 nM	140 nM	179 nM
GCUCGGCUGAUGGCCCACAUGAGGAUCACCCAUGUGAGUGGGCAGGAUAUCUAGAUUAAGGAUGUAGAGAAGGGCCUGCCGAGC [SameState NG3 #36] (Eterna round: R96, puzzle: Same State NG 3)	2290 nM	19 nM	559 nM
GCUCGUAUGAUGACCGACAUGAGGAUCACCCAUGUGUGUUGGUAGGAUAUCUAUAUUAAGGAUAUAGAGAAGGGCCGAACGAGC [SameState NG3 #16] (Eterna round: R96, puzzle: Same State NG 3)	22.4 nM	23.6 nM	30.6 nM
GCUCGUGGUAUUGUCUACAUGAGGAUCACCCAUGUAGGUGCGGAGGAUAUCUACGUGUCUCAUGUAGAGAAGGUCGUCACGAGC [SameState NG3 #99] (Eterna round: R96, puzzle: Same State NG 3)	61.2 nM	174 nM	38.7 nM
GCUGCAAGGGCAGGAUAUGGGUCCAAAGCGCAAGUGCGCUUUGGUACAUGAGGAUCACCCAUGUCCCAGAAGGGCCCAAACAGC [Bientierqu] (Eterna round: R96, puzzle: Same State NG 2)	15.5 nM	87.2 nM	121 nM
GCUGCAAGGGCAGGAUAUGGGUCCAAAGCGCAAGUGCGCUUUGGUACAUGAGGAUCACCCAUGUCCCAGAAGGGCCCAUGCGGC [Edenbiatar] (Eterna round: R96, puzzle: Same State NG 2)	15.5 nM	78.4 nM	123 nM
GCUGCAAUAAACGCCUACAUGAGGAUCACCCAUGUAUGUAGGCAGGAUAUCGUUUGCAAAGCAAACGAGAAGGGCCGUAGUAGC [Mat - Same State NG 3 - JL Mod - D35] (Eterna round: R96, puzzle: Same State NG 3)	26.3 nM	44.6 nM	66.1 nM
GGAAACAGAGGAGGAUAUGCAGAGGAUCACCCUGUAGAAGGCCUCGAAAGGAGGAUAUGCAGAGGAUCACCCUGUAGAAGGCCU [pwkr ssNG DX.26] (Eterna round: R96, puzzle: Same State NG 1)	72.1 nM	156 nM	208 nM
GGAAAGAGGUAAGGAUAUGCAUGGCGGAGACAUGAGGAUCACCCAUGUUGGAGACGAAAUCUAGGGUAGAAGGUACAAGGAAGG [AK SSNG2-V2-11] (Eterna round: R96, puzzle: Same State NG 2)	133 nM	44.6 nM	128 nM
GGAAAGAGGUAAGGAUAUGCAUGGCUGGGACAUGAGGAUCACCCAUGUUAUAGAAGAAAUCUAGGGUAGAAGGUACAAGGAAGG [AK SSNG2-V2-9.1] (Eterna round: R96, puzzle: Same State NG 2)	464 nM	199 nM	455 nM
GGAAAGAGGUCAGGAUAUGAAUGUUUGGGACAUGAGGAUCACCCAUGUAAUAGAAGAAAUCUACAUUAGAAGGGACAAGGAAGG [AK SSNG2-V2-6] (Eterna round: R96, puzzle: Same State NG 2)	63.5 nM	54.5 nM	79.3 nM
GGAAGGAGGUCAGGAUAUGAAUGGAAAGUACAUGAGGAUCACCCAUGUUAUGGAGGAAGGAAACGUUAGAAGGGAUAAGGAAGG [AK SSNG2-V2-2] (Eterna round: R96, puzzle: Same State NG 2)	32 nM	26.8 nM	41.5 nM
GGAAUAUGAUGUUACAUGAGGAUCACCCAUGUAGUGAUAACUAAGGAUAUCUGUUAAGAUAAUUAAGAGAAGGUAGGAUCAUAA [AK SSNG3-V2-8.2] (Eterna round: R96, puzzle: Same State NG 3)	34.7 nM	37.5 nM	42.4 nM
